In patent US20250313612A1 (Adimab, published 2025):

Key:
[1] = target: RSV F protein of recombinant mKate-RSV, subtype A (strain A2) (Respiratory syncytial virus subtype A …, UniProt P03420 26-574); experiment: cell-based or functional assay
[2] = target: RSV F protein of recombinant mKate-RSV, subtype B (18537) (Respiratory syncytial virus subtype B …, UniProt P13843 26-574); experiment: cell-based or functional assay
[3] = target: T1, RSV F ectodomain stabilized in the postfusion conformation (F ΔFP), subtype A (Respiratory syncytial virus subtype A, UniProt P03420 26-109; P03420 147-524); experiment: BLI, IgG on AHQ sensor, 100 nM antigen
T1 construct: extracellular domain; trimer; furin-cleaved; also called Postfusion subtype A

[4] = target: T2, RSV F ectodomain stabilized in the postfusion conformation (F ΔFP), subtype B (Respiratory syncytial virus subtype B, UniProt P13843 26-109; P13843 147-524); experiment: BLI, IgG on AHQ sensor, 100 nM antigen
T2 construct: extracellular domain; trimer; also called Postfusion subtype B; postF subtype B

[5] = target: RSV F protein of subtype A (strain A2) on recombinant mKate-RSV (Respiratory syncytial virus subtype A …, UniProt P03420 26-574); experiment: cell-based or functional assay
[6] = target: RSV F protein of subtype B (18537) on recombinant mKate-RSV (Respiratory syncytial virus subtype B …, UniProt P13843 26-574); experiment: cell-based or functional assay

Binder | Neut IC50 subtype A [1] | Neut IC50 subtype B [2] | Kd [3] | Kd [4] | Neut IC50 (µg/ml) subtype A [5] | Neut IC50 (µg/ml) subtype B [6]
ADI-14470 (antibody, V domains shown, full-length IgG (yeast-expressed); also called Antibody Number 33; Ab# 33) VH: QVTLKESGPALVKPTETLTLTCTFSGFSLSTKRLSVSWIRQPPGKALEWLARIDWDDDKSYSTSLRTRLTIAKDTSKNQVVLTMTNMGPADTATYFCVRSSVYASNAYYLYYFDSWGQGTLVTVSS VL: DIRMTQSPSSLSASVGDRVTITCRASQSIATYLNWYQHKPGKAPTLLIYAASILHSGVPPRFSGRASGTDFTLTISSLQPEDFATYYCQQAYSSPYTFGQGTKVDIK | 0.226 µg/mL | 0.473 µg/mL | 0.358 nM | 0.314 nM | – | –
ADI-14542 (antibody, V domains shown) VH: QVQLVQSGAEVKKPGESLKISCKGSGYVFSSYWVAWVRQMPGKGLEWMGIIYPHDSDTRYSPAFQGQVTISADKSINTAYLQWSSLKASDTAMYYCTIILIPAPIRAPDGFDIWGQGTTVTVSS VL: NFMLTQPHSVSESPGKTVTISCTGSGGTIASNYVQWYQQRPGSVPTTVIYENNERPSGVPDRFSGSIDRSSNSASLTISGLKTEDEADYYCQSYDSSYHVVFGGGTKVTVL | – | – | – | – | 0.008 µg/mL | 4.3 µg/mL
ADI-14440 (antibody, V domains shown, full-length IgG (yeast-expressed); also called Antibody Number 3; Ab# 3) VH: QVQLVQSGAEVKKPGSSVKVSCKASGGTINNVAISWLRQAPGQGLEWLGGNIPGFGKVRYSQQFETRLTLTADVSSDTAYMVLTSLRSEDTAVYYCAIIDPQLCTRASCFWVNWLDPWGQGTTVTVSS VL: DIVMTQSPGTLSVSPGESAALSCGASESILSDSLAWYQHKPGQAPRLLIYGASSRAAGIPDRFSGSGSGTDFTLTISRLEPEDFAVYFCQQFGALPITFGQGTRLEIK | > 10 µg/mL | 4.18 µg/mL | 1.45 nM | 2.39 nM | – | –
ADI-14460 (antibody, V domains shown, full-length IgG (yeast-expressed); also called Antibody Number 23; Ab# 23) VH: QVQLQQWGAGLLKPSETLSLSCTVSGGVFGNYFWSWVRQAPGKGLEWIGEINQIGTTNYSPSASLKSRVTISVDPSRNQFSLSLRSVTAADTARYYCTRSETSDYFDSSGYAFHIWGEGTMVTVSS VL: LPVLTQPASVSGSPGQSITISCSGISSDGGRYNYVSWYQQHPGKAPKLLIYDDSNWPLGVSHRFSGSKSGNTASLTISGLRAEDEADYYCGSYTDTNRLFGGGTQLTVL | 0.102 µg/mL | 0.239 µg/mL | 2.86 nM | 2.56 nM | – | –
ADI-14466 (antibody, V domains shown, full-length IgG (yeast-expressed); also called Antibody Number 29; Ab# 29) VH: QVQLVQSGAEAKKPGEPLRISCKGSGYTFSSYWISWVRQRPGERLEWMGRIDPSDSYAYSSPSFQGHVTFSADKSSNTAFLQWSSLQASDTAIYYCARHKENYDFWDFWGQGTMVTVSS VL: ETTLTQSPDSLAVSLGERATINCRSSQPILFNPINKLSLAWYQLKPGQPPKLLISWASTREPGVPDRFNGSGSGTVFTLTISSLQPEDVAVYVCQQYFTSTFFGPGTKVEIK | 0.144 µg/mL | 0.263 µg/mL | 0.247 nM | 0.169 nM | – | –
ADI-14533 (antibody, V domains shown) VH: QVQLVQSGAEVKKPGSSVIISCKASGGTFRNYGFTWVRQAPGQGLEWLGGIIPMFETVRYAQKFQGRVTITADENTNTAFLAVSSLRSEDTGVYFCARDLQTGIMSSVRSEYRGFMDPWGQGTLVTVSS VL: QSVLTQPPSVSGAPRQRVTISCSGSSSNIGTNAVNWYQQLPGKSPKVLIYYDELVPSGVSDRFSGSRSGTSASLAISGLRSEDEAYYYCAAWDDSLNGWVFGGGTQLTVL | – | – | – | – | > 10 µg/mL | 0.442 µg/mL
ADI-14543 (antibody, V domains shown) VH: QVQLVQSGAEVKKPGSSVKVSCKASGDTFSSYAISWVRQAPGQGLEWMGGVLPMLGTANYAQRFRGRVTLTADGSTNTAYMEMSSLRLDDTAVYYCARVAGLGNSYGRYPDLWGQGTLVTVSS VL: DIVMTQSPSSLSASVGDRVTITCRASQGISSSLAWYQQKPGKAPELLIYAASSLHSGVPSRFRGSGSGTDFTLTISSVQPEDFATYYCQQANSFPYTFGQGTKLEIK | – | – | – | – | > 10 µg/mL | > 10 µg/mL
ADI-14485 (antibody, V domains shown, full-length IgG (yeast-expressed); also called Antibody Number 46; Ab# 46) VH: EVQLVESGAEVKRPGSSVKVSCKVVGGSFSNYAISWVRQAPGQGPEYLGGIIPAFRTAKYAKKFQDRLTITADESTSTAYMEMRGLTSDDTGLYYCARPEGDFGDLKWLRSPFDYWGQGTLVTVSS VL: EIVLTQSPATLSVSPGQRVTLSCRASQGVSINLAWYQQKPGQPPRLLIYGASTRATDIPARFSGSGSGTDFTLTISSLQSEDFAVYYCQQYDDWPPQLTFGPGTKLEIK | > 10 µg/mL | 2.81 µg/mL | 1.52 nM | 0.642 nM | – | –
ADI-14540 (antibody, V domains shown) VH: QVQLVESGGGVVQPGRSLRLSCAASGFTFTDYAMHWVRQAPGKGLQWVALISYNGRIQYYADSVKGRFTISRDDSKNTLYLQMNSLRAGDTAVYYCARDGDLVAVPAAIGFDSWGQGTLVTVSS VL: DIQVTQSPDSLAVSLGERATINCKSSQSVLYTSNNKNYLAWYQQKSRQPPKLLIYWASTRESGVPERFSGSGSGTDFTLTISSLQAEDVAVYYCQQYSSPPYTFGQGTKVEIK | – | – | – | – | > 10 µg/mL | > 10 µg/mL
ADI-14477 (antibody, V domains shown, full-length IgG (yeast-expressed); also called Antibody Number 39; Ab# 39) VH: EVQLVESGPTLVKPTQTLTLTCSLSGFSLTTRGVGVGWIRQPPGKAPECLGFVYWDDDNRYSPSLRGRLTISKDTSKNQVVLTLTNMDPLDTATYYCVHSDLYDRGGYYLFYFDDWGQGTLVTVSS VL: DIQVTQSPSSLSASVGDRVTITCRASQPIASYLNWYQQKPGQAPKLLIYAASMLQSGAPSKFSGRGSGTDFTLTITTLQPEDFATYYCQQSYTFPYTFGQGTKVEIK | > 10 µg/mL | > 10 µg/mL | 0.361 nM | 1.22 nM | – | –
ADI-14476 (antibody, V domains shown, full-length IgG (yeast-expressed); also called Antibody Number 38; Ab# 38) VH: QVQLVESGPTLVKPTQTLSLTCTFSGFSLTTRGVGVGWIRQPPGKALEWLGFTYWDGDDRYSPSLRNRVSIAKDTSKNQVVLTLTNMDPVDTATYFCVHSDRYDRGGYYLYFFDYWGPGTLVTVSS VL: DIRVTQSPSSLSASVGDRVSISCRASQTIASYVNWYQQRPGKAPQLLIFAASHLQTGVPSRFSGRGSGTDFTLTITSLQPEDFATYYCQQSYTSPYTFGQGTKVEIK | 0.929 µg/mL | 2.19 µg/mL | 0.827 nM | 9.12 nM | – | –
ADI-14541 (antibody, V domains shown) VH: EVQLVESGGGLVRPGGSLRLSCAASGFAFSSYSLHWVRQAPGRGLEWVASISAGSSFTDYAASVRGRFTISRNIANSLYLQMNRLRAEDTAVYYCARVIGDGTILGVVF VL: QSVLTQPPSVSGAPGQRVTISCTGGRSNIGAGYDVHWYQQLPGTAPKLLIYGNINRPSGVPDRFSGSKSGTSASLAITGLLAEDEADYYCQSYDSSLSVIFGGGTKLTVL | – | – | – | – | 0.023 µg/mL | 0.106 µg/mL
ADI-14468 (antibody, V domains shown, full-length IgG (yeast-expressed); also called Antibody Number 31; Ab# 31) VH: QVQLVQSGPTLVRPTQTLTLTCTFSGFSLSTRGVGVGWVRQSPGKAPEFLVLAHWDDDKIYSPSLRRRLSVTKDVSKNQVVLALTNVDPVDTGTYFCVKSDLYDRGGYYLYYFDHWGQGTLVTVSS VL: DIRMTQSPSSLSASVGDRVTITCRASQTIASYVNWYLQRPGEAPKLLIYAASNLHSGAPPSLIGRGSGTDFTLTINTLQPEHFGTYFCQQTFSSPYTFGQGTKVEIK | 0.241 µg/mL | 2.41 µg/mL | 0.297 nM | 0.241 nM | – | –
ADI-14469 (antibody, V domains shown, full-length IgG (yeast-expressed); also called Antibody Number 32; Ab# 32) VH: QVQLVESGPTLVKPTQTLTLTCTFSGFSLTTRGVGVGWVRQPPGKALEFLGLTHWDDDKIYSPSLRRRLTITKDTSKNQVVLALANVDPVDTATYFCVKSDLYDRGGYYLYYFDYWGQGTLVTVSS VL: EIVLTQSPSSLSASVGDRVTITCRASQTIPSYVNWYLQRPGEAPKLLIYGASNLHTGAPPTFIGRGSGADFTLTINTLQPEHFGTYYCQQTFSSPYTFGQGTKVEIK | 0.05 µg/mL | 0.013 µg/mL | 0.301 nM | 2.9 nM | – | –
ADI-14544 (antibody, V domains shown) VH: QVQLVQSGAEVKKPGESLKISCKGAGFGSTNSWIGWVRQMPGKGLEWMGVIFPGDSDTKYSPTFQGQVTISVDKSINTAYLQWSSLKASDTAIYYCARMLASVGLSNFDAWGQGTLVTVSS VL: QPVLTQPPSVSLAPGKTATITCGGNNIGGKSVHWYQQKPGQAPVLVIDYDSDRPSGIPERFSGSNSGNTATLTINRVEAGDEADYYCQVWDSISDHVLFGGGTKLTVL | – | – | – | – | > 10 µg/mL | > 10 µg/mL
ADI-14475 (antibody, V domains shown, full-length IgG (yeast-expressed); also called Antibody Number 37; Ab# 37) VH: QVQLVQSGPALVKPTQTLTLTCTFSGFSLTTARMCVSWIRQPPGKALEWLARIDWDDDKSYSTSLKTRLTIAKDTSKNQVVLTMTNMGPADTATYYCVRTPIYASGGYYLSYFDSWGQGTLVTVSS VL: DIVMTQSPSSLSASVGDSVTITCRASQTIASYVNWYQHKPGQAPNLLIYAASILHSGVPSRFRGGGSGTDFTLTINSLQPEDFATYYCQQSYSTPYTFGQGTKVDIK | 0.391 µg/mL | 0.522 µg/mL | 0.299 nM | 0.242 nM | – | –
ADI-14459 (antibody, V domains shown, full-length IgG (yeast-expressed); also called Antibody Number 22; Ab# 22) VH: QVQLVQSGGGLVKPGGSLRLSCAASGFTFSNAWMSWVRQAPGKGLDWVGRIKTKADGGTRDYAAPVKGRFTISRDDSENTLYLQMTSLKTEDTGVYYCSTGPPYKYHDSTGYSVVDYWGQGTLVTVSS VL: SYELTQPPSASGTPGQRVTISCSGGSSNIGSDYVYWYQQLPGTAPKLLIYGSSQRPSGVPDRFSGSQSGTSASLAISGLRSEDEADYYCAMWDDSLNGPVFGGGTKLTVL | 0.396 µg/mL | 0.753 µg/mL | 0.264 nM | 0.183 nM | – | –
